Measurements from US20240150797A1, “BIOCATALYTICAL PRODUCTION OF DIHYDROCHALCONES” (Symrise AG, priority 2021, published 2024).

Tests used:
Format in all cases: biochemical
Conditions in all cases: purified CHI in 50 mM PBS, 100 μM substrate, 25° C.
[1] = Specific activity of purified CHI, absorbance decrease at 384 nm, 4-O-methyl butein
Method: (§1) E. coli BL21 (DE3) cells containing one of the pET28b plasmids from Table 2 or Table 3 were used to inoculate 1 L LB medium at OD of 0.1. Cells were incubated at 37° C., 250 rpm until the OD reached 0.4-0.6 and induced by supplementing with 0.1 mM IPTG. After protein expression at 28° C., 250 rpm for 16 h, the cells were harvested by centrifugation at 4,000×g for 15 min. The harvested cells were lysed with 0.5 mg/mL lysozyme (Sigma-Aldrich), 0.4 U/mL Benzonase (Sigma-Aldrich) and BugBuster (Merck) at room temperature for 0.5 h to obtain a crude cell extract. The crude extract was centrifuged at 10,000×g for 30 min to remove the pellet. Recombinant proteins were purified by Ni-affinity chromatography (GE Healthcare). The supernatant of the crude extract was loaded on the column with 20 mM imidazole. The column was washed by 5 column volumes of 30 mM imidazole with 20 mM PBS (pH 7.4) and 500 mM NaCl. The target proteins were eluted by 150 mM imidazole with 20 mM PBS (pH 7.4) and 500 mM NaCl. Buffer exchange with 50 mM PBS (pH 7.5) was achieved by ultrafiltration with Amicon Ultra-15 (Merck). The activity of the respective purified enzyme was determined by measuring the absorbance decrease at 384 nm in the reaction mix (CHI in 50 mM PBS with 100 μM of either naringenin chalcone, hesperetin chalcone, eriodictyol chalcone, homoeriodictyol chalcone or 4-O-methyl butein at 25° C.).

[2] = Specific activity of purified CHI, absorbance decrease at 384 nm, hesperetin chalcone
Method: as §1

[3] = Specific activity of purified CHI, absorbance decrease at 384 nm, eriodictyol chalcone
Method: as §1

[4] = Specific activity of purified CHI, absorbance decrease at 384 nm, naringenin chalcone
Method: as §1

[5] = Specific activity of purified CHI, absorbance decrease at 384 nm, homoeriodictyol chalcone
Method: as §1

| Molecule | Specific activity, 4-O-methyl butein [1] | Specific activity, Hesperetin chalcone [2] | Specific activity, Eriodictyol chalcone [3] | Specific activity, Naringenin chalcone [4] | Specific activity, Homoeriodctiol chalcone [5] |
| --- | --- | --- | --- | --- | --- |
| CHI1: Chalcone isomerase from Fusibacter sp. 3D3, access no. WP_069876268.1 (protein, Fusibacter sp. 3D3) SYVPEFKPMRSFILNNVRSDNDRPKAFRWLYKQHVPESISQFRPYCTKYATYHALPLVEGAEQFGTYNWIMTEHYWNFNIFQDKGLGHSRGLAFTEAYPHDFMEITCQPPSNTLRQSGWQGSAEGYHPIVFCFAPIFWENDFKGSERLTDDGANFRWLFFLSYPEGVTVEEGDQWFLETFAKEAAEMPEVIRFLSSRVMDSPRINPFDRIVELWFDDSEAWHNAMVKNGHLFTKPAWSKVDQFPFFEAYKDITGVFIMDRPDSDHLAQWQGYITTR | 0.2 | 16.7 | 18.2 | 21.3 | 11.3 |
| CHIera Mut7: Chalcone isomerase variant 7 from Eubacterium ramulus, genetically engineered (protein, listed as Eubacterium ramulus) MADFKFEPMRSLIYVDCVSEDYRPKLQRWIYKVHIPDSISTFEPYVTKYAFYPSFPIPPQGDRFGYARMQLTEHHWLVSELDPRLEIRAIAETFPMDVLVWQGQIPAAAHTDAQIDSDGDAGDAARKSNNAEGNPFIFAFLPMWWEKDLKGKGRTIEDGANYRFNMTIGFPEGVDKAEGEKWLFEKVVPILQAAPECTRVLASAVKKDINGCVMDWVLEIWFENQSGWYKVMVDDMKALEKPSWAQQDAFPFLKPYHNVCSAAVADYTPSNNLANYRGYITMR |  | 28.4 | 181.3 | 61.4 | 62.2 |
| CHIera Mut14: Chalcone isomerase variant 14 from Eubacterium ramulus, genetically engineered (protein, listed as Eubacterium ramulus) MADFKFEPMRSLIYVDCVSEDYRPKLQRWIYKVHIPDSISKFEPYVTKYAFYPSFPIPPQGDRFGYARMQLTEHHWLVSELDPRLEINAIAETFPMDVLVWQGQIPAAAHTDAQIDSDGDAHRAARKSNNAEGNPFIFAFLPMWWEKDLKGKGRTIEDGANYRFNMTIGFPEGVDKAEGEKWLFEKVVPILQAAPECTRVLASAVKKDINGCVMDWVLEIWFENQSGWYKVMVDDMKALEKPSWAQQDAFPFLKPYHNVCSAAVADYTPSNNLANYRGYITMR |  | 4.5 | 27.2 | 29.5 | 15.6 |
| CHIera Mut11: Chalcone isomerase variant 11 from Eubacterium ramulus, genetically engineered (protein, listed as Eubacterium ramulus) MADFKFEPMRSLIYVDCVSEDYRPKLQRWIYKVHIPDSISQFEPYVTKYAFYPSFPIPPQGDRFGYARMQLTEHHWLVSPLDPRLEIKAIAETFPMDVLVWQGQIPAAAHTDAQIDSDGDAGDAARKSNNAEGNPFIFAFLPMWWEKDLKGKGRTIEDGANYRFNMTIGFPEGVDKAEGEKWLFEKVVPILQAAPECTRVLASAVKKDINGCVMDWVLEIWFENQSGWYKVMVDDMKALEKPSWAQQDAFPFLKPYHNVCSAAVADYTPSNNLANYRGYITMR |  | 75.5 | 91.1 | 76.8 | 30.8 |
| CHIera Mut12: Chalcone isomerase variant 12 from Eubacterium ramulus, genetically engineered (protein, listed as Eubacterium ramulus) MADFKFEPMRSLIYVDCVSEDYRPKLQRWIYKVHIPDSISKFEPYVTKYAFYPSFPIPPQGDRFGYARMQLTEHHWLVSPLDPRLEINAIAETFPMDVLVWQGQIPAAAHTDAQIDSDGDAARAARKSNNAEGNPFIFAFLPMWWEKDLKGKGRTIEDGANYRFNMTIGFPEGVDKAEGEKWLFEKVVPILQAAPECTRVLASAVKKDINGCVMDWVLEIWFENQSGWYKVMVDDMKALEKPSWAQQDAFPFLKPYHNVCSAAVADYTPSNNLANYRGYITMR |  | 24.9 | 19.9 | 11.0 | 9.8 |
| CHIera Mut10: Chalcone isomerase variant 10 from Eubacterium ramulus, genetically engineered (protein, listed as Eubacterium ramulus) MADFKFEPMRSLIYVDCVSEDYRPKLQRWIYKVHIPDSISQFEPYVTKYAFYPSFPIPPQGDRFGYARMQLTEHHWLVSILDPRLEIKAIAETFPMDVLVWQGQIPAAAHTDAQIDSDGDAGDAARKSNNAEGNPFIFAFLPMWWEKDLKGKGRTIEDGANYRFNMTIGFPEGVDKAEGEKWLFEKVVPILQAAPECTRVLASAVKKDINGCVMDWVLEIWFENQSGWYKVMVDDMKALEKPSWAQQDAFPFLKPYHNVCSAAVADYTPSNNLANYRGYITMR |  | 96.4 | 60.0 | 26.4 | 17.9 |
| CHIera Mut9: Chalcone isomerase variant 9 from Eubacterium ramulus, genetically engineered (protein, listed as Eubacterium ramulus) MADFKFEPMRSLIYVDCVSEDYRPKLQRWIYKVHIPDSISQFEPYVTKYAFYPSFPIPPQGDRFGYARMQLTEHHWLVSMLDPRLEIKAIAETFPMDVLVWQGQIPAAAHTDAQIDSDGDAGNAARKSNNAEGNPFIFAFLPMWWEKDLKGKGRTIEDGANYRFNMTIGFPEGVDKAEGEKWLFEKVVPILQAAPECTRVLASAVKKDINGCVMDWVLEIWFENQSGWYKVMVDDMKALEKPSWAQQDAFPFLKPYHNVCSAAVADYTPSNNLANYRGYITMR |  | 57.4 | 43.7 | 67.5 | 14.4 |
| CHI2: Chalcone isomerase from Tepidanaerobacter acetatoxydans, access no. WP_013779275.1 (protein, Tepidanaerobacter acetatoxydans) DTEFKPMRSLIYVGVAKEEYRHKLKNWLYRYHIPDSISQFAPYVTKYAFYNALPVPPEGERFGAYNMQLTEHYWLINPMNPQLKIKAFTEFFPVDVLKWQGNIPDDADADSVNIEGDAARSSGGDNGMPPFIFAFIPFWWEEDFKGAGRTVEDGPNYRWQFLIQYPNGISLEEGDQWFYKKLVPAFKEMPEVNRFLTSRVIRDVNDCQFHRVIEMWFDGPEEWYRAAVEKGKSIERPHWATAEEFPYLKPKFQIASLFLTDIADSDNYSQYRGYITMR | 0.8 | 93.5 | 25.4 | 54.8 | 19.9 |
| CHI12: Chalcone isomerase from Holophaga foetida, access no. WP_005036737.1 (protein, listed as Holophaga foetida) TVEFCPMRSLIYVGLSKEKYRHLLQNWLYRIHIPDSISQFGPYVTKYAFYNALPVPPEGERFGTIKMQLTEHYWQCNPFQQAVAVKTFKEVFPIDVLRWQGNMPDESDGAVELEGDEARSAKGGQGAKPFIFAFVPLWWEEDIKGKMRTIADGPNYRWQFVMKYPEGVSQEQGDKWFLEEVAPAFAAMPEVNRILSSKIIQNVNGCSFNRVVEMWFDGPDEWYAAAVTKAAALPKPTWAKQDKFPFLASDYEFASVFLTDYATSDNLSQYRGYITLR | 0.2 | 36.5 | 28.2 | 32.4 |  |
| CHI4: Chalcone isomerase from Acetoanaerobium noterae, access no. WP_079589066.1 (protein, listed as Acetoanaerobium noterae) ADFEFNPMRSLIYVDVVKEDYRHMLKHWLYRHHIPDSISQFGPYVTKYAFYPALPTPPEGDRFGTIRMQLTEHYWTVNPFTSNFKNKAFTEFFPIDILKWQGNIPDDSKVAALEGEEVVKLEGDDARASGGDNGCPPFIFAFVPICWEEDFKGSQRTVEDGPNYRWQFVMKYPEGVTMKEGDKWFYEEMIPKFKDMPDVLRILSSKIIQQVNGCPYHRVVEMWFNCPSAWYRSAVEKAKEIKKPSWAKYDVFPYLKPKFEIASLFLTDIAESDNYSQYRGYITMR | 0.4 | 58.5 | 34.4 | 46.6 | 15.2 |
